Data published in paper doi:10.1101/2020.10.30.362368 (bioRxiv, 2020).
Positions count from the first letter of the chain named. Names may count otherwise.

T1: SmcR N55I (Vibrio vulnificus, UniProt Q9L8G8 1-205, N55I)
T1 sequence: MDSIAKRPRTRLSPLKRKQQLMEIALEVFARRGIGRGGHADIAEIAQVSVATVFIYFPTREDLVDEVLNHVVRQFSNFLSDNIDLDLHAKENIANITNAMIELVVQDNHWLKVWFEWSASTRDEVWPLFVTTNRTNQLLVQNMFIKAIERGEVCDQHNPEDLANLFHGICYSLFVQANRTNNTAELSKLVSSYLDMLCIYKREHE

T2: SmcR WT (Vibrio vulnificus, UniProt Q9L8G8 1-205)
T2 sequence: T1 sequence with I55N

B1: PluxC site B (JDN55/JDN54) (dsDNA)
DNA 1: TTACTTATTTATAGTGTTACAAATAACATTA
DNA 2: TAATGTTATTTGTAACACTATAAATAAGTAA
B2: PluxC site D (site E mutated) (dsDNA)
DNA 1: TTTGTTAAATGTTATGACTAATTATAAATAAATCAAACGCGCGTTAGATT
DNA 2: AATCTAACGCGCGTTTGATTTATTTATAATTAGTCATAACATTTAACAAA
B3: PluxC site E (site D mutated) (dsDNA)
DNA 1: TTTGTTAAATGTTGCGCGTAATTATAAATAAATCAAACTATAATTAGATT
DNA 2: AATCTAATTATAGTTTGATTTATTTATAATTACGCGCAACATTTAACAAA
B4: SmcR wild-type, untagged (Vibrio vulnificus quorum-sensing transcription factor) (natural protein)
chain: T1 sequence with I55N
B5: SmcR N55I, untagged (natural protein)
chain: T1 sequence

Columns and labels:
[1] = molecular target: T1, SmcR N55I; test: EMSA
[2] = molecular target: T2, SmcR WT; test: EMSA
[3] = molecular target: V. harveyi His-RNAP alpha (RNA polymerase alpha subunit) (Vibrio harveyi, UniProt A0A0B4IMU9 1-330); test: BLI

Binder | binding result [1] | binding result [2] | Kd [3] [nM]
B1 | binds | binds | –
B2 | – | binds | –
B3 | – | binds | –
B4 | – | – | 142
B5 | – | – | 160
